tested on: Escherichia coli TOP10; test: shrunken log2 fold change of peptide-encoding DNA abundance (4.5 h post-induction vs induction); higher = less antimicrobial activity (less host growth inhibition); details: time post-induction: 4.5 h; library: site-saturation at positions 5, 18, 19, 20
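Further: peptides expressed intracellularly from a pBAD plasmid library in pooled LB shake-flask culture, induced with 0.3% L-arabinose, DNA abundance read by NGS, three biological replicates, DESeq2 with apeglm shrinkage.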

Compared with RRIRNRPPRLPRPRPRPTIQPRP, RRIRHRPPRLPRPRPRPYTNPRP is lower in “shrunken log2 fold change” value: -0.213 for the first, -0.461 for the second.

First: RRIRDRPPRLPRPRPRPSSPPRP
Second: RRIRARPPRLPRPRPRPWCCPRP
The “shrunken log2 fold change” value of the first is lower: -0.341 for the first, 0.104 for the second.

RRIRKRPPRLPRPRPRPNFYPRP and RRIRQRPPRLPRPRPRPSHQPRP are within 0.2 log units of each other in “shrunken log2 fold change” value: 0.0337 for the first, -0.0977 for the second.

Compared with RRIRQRPPRLPRPRPRPGFLPRP, RRIRCRPPRLPRPRPRPNYKPRP is lower in “shrunken log2 fold change” value: 0.107 for the first, -0.831 for the second.

Going from RRIRKRPPRLPRPRPRPSCEPRP to RRIRPRPPRLPRPRPRPSFNPRP, the “shrunken log2 fold change” value falls from 0.401 to -0.629.

Compared with RRIRFRPPRLPRPRPRPKFSPRP, RRIRPRPPRLPRPRPRPYRNPRP is lower in “shrunken log2 fold change” value: -0.0365 for the first, -0.558 for the second.

Compared with RRIRPRPPRLPRPRPRPMSNPRP, RRIRTRPPRLPRPRPRPIYKPRP is lower in “shrunken log2 fold change” value: -0.127 for the first, -1.02 for the second.

Going from RRIRCRPPRLPRPRPRPLFTPRP to RRIRHRPPRLPRPRPRPAEQPRP, the “shrunken log2 fold change” value rises from -0.42 to 0.0649.

RRIRKRPPRLPRPRPRPKFNPRP and RRIRTRPPRLPRPRPRPMENPRP are within 0.2 log units of each other in “shrunken log2 fold change” value: -0.0876 for the first, -0.011 for the second.

Compared with RRIRKRPPRLPRPRPRPQRLPRP, RRIRYRPPRLPRPRPRPCIGPRP is lower in “shrunken log2 fold change” value: 0.308 for the first, -0.644 for the second.

Going from RRIRSRPPRLPRPRPRPPRWPRP to RRIRPRPPRLPRPRPRPNWCPRP, the “shrunken log2 fold change” value falls from 0.722 to 0.0235.

Going from RRIRWRPPRLPRPRPRPTWHPRP to RRIRVRPPRLPRPRPRPHDLPRP, the “shrunken log2 fold change” value falls from 0.0819 to -0.226.

Going from RRIRNRPPRLPRPRPRPTFNPRP to RRIRSRPPRLPRPRPRPYMCPRP, the “shrunken log2 fold change” value falls from -0.506 to -0.903.

RRIRSRPPRLPRPRPRPISYPRP and RRIRQRPPRLPRPRPRPNPGPRP are within 0.2 log units of each other in “shrunken log2 fold change” value: -0.117 for the first, -0.205 for the second.

Compared with RRIRERPPRLPRPRPRPKKEPRP, RRIRCRPPRLPRPRPRPHMQPRP is lower in “shrunken log2 fold change” value: -0.0367 for the first, -0.322 for the second.

RRIRERPPRLPRPRPRPHRCPRP and RRIRHRPPRLPRPRPRPTHRPRP are within 0.2 log units of each other in “shrunken log2 fold change” value: -0.0136 for the first, 0.0822 for the second.

RRIRQRPPRLPRPRPRPWNGPRP and RRIRNRPPRLPRPRPRPCPGPRP are within 0.2 log units of each other in “shrunken log2 fold change” value: -0.0018 for the first, 0.00341 for the second.

RRIRTRPPRLPRPRPRPRRSPRP and RRIRNRPPRLPRPRPRPPAVPRP are within 0.2 log units of each other in “shrunken log2 fold change” value: 0.318 for the first, 0.387 for the second.

Compared with RRIRLRPPRLPRPRPRPSCQPRP, RRIRTRPPRLPRPRPRPIYTPRP is lower in “shrunken log2 fold change” value: -0.256 for the first, -0.46 for the second.

Compared with RRIRFRPPRLPRPRPRPAQEPRP, RRIRPRPPRLPRPRPRPSHLPRP is lower in “shrunken log2 fold change” value: 0.351 for the first, -0.168 for the second.

RRIRRRPPRLPRPRPRPIRRPRP and RRIRARPPRLPRPRPRPNQCPRP are within 0.2 log units of each other in “shrunken log2 fold change” value: -0.0312 for the first, -0.176 for the second.

Going from RRIRCRPPRLPRPRPRPYQYPRP to RRIRVRPPRLPRPRPRPADLPRP, the “shrunken log2 fold change” value rises from -0.399 to 0.0387.

Compared with RRIRERPPRLPRPRPRPNSCPRP, RRIRRRPPRLPRPRPRPNAWPRP is higher in “shrunken log2 fold change” value: -0.128 for the first, 0.597 for the second.

RRIRYRPPRLPRPRPRPSCPPRP and RRIRCRPPRLPRPRPRPHYSPRP are within 0.2 log units of each other in “shrunken log2 fold change” value: -0.851 for the first, -0.723 for the second.

RRIRSRPPRLPRPRPRPVGTPRP and RRIRVRPPRLPRPRPRPDDGPRP are within 0.2 log units of each other in “shrunken log2 fold change” value: -0.0487 for the first, 0.0292 for the second.

RRIRNRPPRLPRPRPRPDLDPRP and RRIRMRPPRLPRPRPRPWIVPRP are within 0.2 log units of each other in “shrunken log2 fold change” value: 0.0497 for the first, 0.0842 for the second.

RRIRQRPPRLPRPRPRPLCIPRP and RRIRIRPPRLPRPRPRPMKSPRP are within 0.2 log units of each other in “shrunken log2 fold change” value: -0.28 for the first, -0.161 for the second.

First: RRIRCRPPRLPRPRPRPQYRPRP
Second: RRIRCRPPRLPRPRPRPMQHPRP
The “shrunken log2 fold change” value of the first is lower: -2.05 for the first, -0.173 for the second.

RRIRCRPPRLPRPRPRPCQFPRP and RRIRIRPPRLPRPRPRPNGAPRP are within 0.2 log units of each other in “shrunken log2 fold change” value: -0.0777 for the first, 0.0157 for the second.

Going from RRIRIRPPRLPRPRPRPLFDPRP to RRIRMRPPRLPRPRPRPVWYPRP, the “shrunken log2 fold change” value rises from -0.803 to -0.0263.

Going from RRIRGRPPRLPRPRPRPLSNPRP to RRIRFRPPRLPRPRPRPMYNPRP, the “shrunken log2 fold change” value falls from 0.416 to -0.294.

Compared with RRIRPRPPRLPRPRPRPGTDPRP, RRIRYRPPRLPRPRPRPQRIPRP is lower in “shrunken log2 fold change” value: 0.119 for the first, -0.0956 for the second.

First: RRIRVRPPRLPRPRPRPWLWPRP
Second: RRIRMRPPRLPRPRPRPMESPRP
The “shrunken log2 fold change” value of the first is higher: 0.475 for the first, -0.00987 for the second.

RRIRLRPPRLPRPRPRPGVFPRP and RRIRTRPPRLPRPRPRPWRCPRP are within 0.2 log units of each other in “shrunken log2 fold change” value: -0.0879 for the first, -0.00386 for the second.

Compared with RRIRERPPRLPRPRPRPIGHPRP, RRIRTRPPRLPRPRPRPRDGPRP is higher in “shrunken log2 fold change” value: -0.244 for the first, 0.456 for the second.

Compared with RRIRRRPPRLPRPRPRPKIEPRP, RRIRPRPPRLPRPRPRPYHEPRP is lower in “shrunken log2 fold change” value: 0.0387 for the first, -0.348 for the second.

Going from RRIRFRPPRLPRPRPRPRQVPRP to RRIRKRPPRLPRPRPRPCMTPRP, the “shrunken log2 fold change” value rises from -0.331 to 0.0372.

Compared with RRIRTRPPRLPRPRPRPQYTPRP, RRIRGRPPRLPRPRPRPAQYPRP is higher in “shrunken log2 fold change” value: -0.697 for the first, 0.233 for the second.

Compared with RRIRHRPPRLPRPRPRPHSFPRP, RRIRGRPPRLPRPRPRPGNAPRP is higher in “shrunken log2 fold change” value: -0.0282 for the first, 0.478 for the second.

First: RRIRGRPPRLPRPRPRPKCCPRP
Second: RRIRYRPPRLPRPRPRPWQAPRP
The “shrunken log2 fold change” value of the first is higher: 0.56 for the first, -0.0293 for the second.

RRIRQRPPRLPRPRPRPFCMPRP and RRIRNRPPRLPRPRPRPHVDPRP are within 0.2 log units of each other in “shrunken log2 fold change” value: -0.0373 for the first, 0.00884 for the second.

RRIRFRPPRLPRPRPRPEFPPRP and RRIRKRPPRLPRPRPRPVCIPRP are within 0.2 log units of each other in “shrunken log2 fold change” value: -0.132 for the first, 0.0558 for the second.

Compared with RRIRERPPRLPRPRPRPYESPRP, RRIRQRPPRLPRPRPRPPFMPRP is higher in “shrunken log2 fold change” value: -0.0018 for the first, 0.213 for the second.

First: RRIRGRPPRLPRPRPRPQDFPRP
Second: RRIRFRPPRLPRPRPRPCTVPRP
The “shrunken log2 fold change” value of the first is higher: 0.178 for the first, -0.318 for the second.

Compared with RRIRQRPPRLPRPRPRPNCTPRP, RRIRFRPPRLPRPRPRPTYSPRP is higher in “shrunken log2 fold change” value: -0.448 for the first, -0.209 for the second.

RRIRRRPPRLPRPRPRPREYPRP and RRIRTRPPRLPRPRPRPTANPRP are within 0.2 log units of each other in “shrunken log2 fold change” value: 0.2 for the first, 0.0721 for the second.

RRIRPRPPRLPRPRPRPPKKPRP and RRIRIRPPRLPRPRPRPERGPRP are within 0.2 log units of each other in “shrunken log2 fold change” value: 0.0716 for the first, 0.183 for the second.

First: RRIRDRPPRLPRPRPRPLDNPRP
Second: RRIRIRPPRLPRPRPRPHKDPRP
The “shrunken log2 fold change” value of the first is higher: -0.0187 for the first, -0.447 for the second.

RRIRHRPPRLPRPRPRPMLDPRP and RRIRGRPPRLPRPRPRPKDLPRP are within 0.2 log units of each other in “shrunken log2 fold change” value: 0.0917 for the first, -0.0839 for the second.

Compared with RRIRIRPPRLPRPRPRPNGHPRP, RRIRWRPPRLPRPRPRPTRFPRP is higher in “shrunken log2 fold change” value: -0.469 for the first, 0.286 for the second.

Going from RRIRLRPPRLPRPRPRPLYAPRP to RRIRSRPPRLPRPRPRPTPAPRP, the “shrunken log2 fold change” value rises from -0.389 to 0.299.

Compared with RRIRPRPPRLPRPRPRPDFGPRP, RRIRHRPPRLPRPRPRPPCTPRP is higher in “shrunken log2 fold change” value: -0.19 for the first, 0.0262 for the second.

Going from RRIRGRPPRLPRPRPRPCHHPRP to RRIRHRPPRLPRPRPRPHMMPRP, the “shrunken log2 fold change” value falls from -0.00543 to -0.321.

Compared with RRIRQRPPRLPRPRPRPMERPRP, RRIRMRPPRLPRPRPRPVKAPRP is lower in “shrunken log2 fold change” value: 0.301 for the first, -0.0481 for the second.

With RRIRCRPPRLPRPRPRPLWIPRP the “shrunken log2 fold change” value was -0.166.
